Sequences and labels used below:
B1: zona pellucida glycoprotein ZP3: ZP3(32–178)N124D (protein)
parent chain: MGPCSRLFVCFLLWGSTELCSPQPFWDDETERFRPSKPPAVMVECQEAQLVVTVDKDLFGTGKLIRPADLTLGPDNCEPLASADTDGVVRFAVGLHECGNILQVTDNALVYSTFLLHNPRPAGNLSILRTNRAEVPIECHYPRQGNVSSWAIQPTWVPFRTTVFSEEKLVFSLRLMEENWSAEKMTPTFQLGDRAHLQAQVHTGSHVPLRLFVDHCVASLTPDWSTSPYHTIVDFHGCLVDGLTDASSAFKAPRPRPEILQFTVDVFRFANDSRNMIYITCHLKVTPVDRVPDQLNKACSFSKSSNRWSPVEGPTDICRCCSKGRCGISGRSMRLSHREGRPVPRSRRHVTEEADVTVGPLIFLRKMNDRGVEGPTSSPPLVMLGLGLATVMTLTLAAIVLGLTGRLRAASHPVCPVSASQ
B2: zona pellucida glycoprotein ZP3: ZP3(32–178)N146D (protein)
parent chain: B1 parent chain
B3: zona pellucida glycoprotein ZP3: ZP3(32–178)N124,146D (protein)
parent chain: B1 parent chain

Here are results for three proteins from paper PMC4693281.

This data set can be described thus: competitive inhibition, sperm binding to ZP-coated wells. The conditions noted are these: glycan lost; control: ZP3(32–178)/ZP4.
With B1, the “other: inhibition of sperm-ZP binding” value is reported as “no change”. As for B2, the entry is “decreases”. As for B3, the entry is “decreases”.
